# In US20250154283A1 (published 2025):
# Numbering of substitutions follows the chain as printed.
# T1: biotinylated human VWF cysteine knot (CK) domain construct (human, biotin on the in vitro biotinylation tag (residue not stated); one N-glycan)
# T1 construct: Disulfide-linked homodimer; also called biotinylated human VWF CK domain; human VWF CK domain construct
# T1 chain: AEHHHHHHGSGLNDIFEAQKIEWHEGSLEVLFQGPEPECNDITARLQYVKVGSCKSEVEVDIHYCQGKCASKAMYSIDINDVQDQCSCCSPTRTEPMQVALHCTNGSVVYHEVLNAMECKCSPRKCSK
# B1: 3964_Lib4_scFv (scFv, not shown: small tags and cut ends)
# scFv: QVQLQESGPGLVKPSQTLSLTCTVSGASISTHSWSWIRQPPGKGLEWIGYINPSGDIDYNPSLKSRVTMSVDTSKNQFSLKVNSVTAADTAVYYCARGRTGFDSSGFVVGAFDIWGQGTMVTVSSSGGSTITSYNVYYTKLSSSGTEIVMTQSPATLSLSPGERATLSCRASQNVNDNLAWYQQKPGQAPRLLIYDASTRPTGIPARFSGSGSGTDFTLTISSLEPEDFAVYYCQQYLTIPRTFGGGTKVEIK
# B2: Lib4_P2_A5_scFv (scFv, not shown: small tags and cut ends)
# scFv: QVQLQESGPGLVKPSQTLSLTCTVSGSSISSSSDYWSWIRQPPGKGLEWIGYIDISGDADYNPSLKSRVTMSVDTSKNQFSLKVNSVTAADTAVYYCARHLSSGWYGTYYFDYWGQGTLVTVSSSGGSTITSYNVYYTKLSSSGTEIVMTQSPATLSLSPGERATLSCRASQNIHSNLAWYQQKPGQAPRLLIYDASSRATGIPARFSGSGSGTDFTLTISSLEPEDFAVYYCQQGYTKPLTFGGGTKVEIK
# B3: 4142_Lib1_scFv (scFv, not shown: small tags and cut ends)
# scFv: QVQLVQSGAEVKKPGASVKVSCKVSGYPFTSSGIHWVRQAPGKGLEWMGGVIPLFGTANYAQKFQGRVTMTEDTSTDTAYMELSSLKSEDTAVYYCARIRVSSGWYRDYGMDVWGQGTTVTVSSSGGSTITSYNVYYTKLSSSGTDIQMTQSPSSVSASVGDRVTITCRASQDITNDLAWYQQKPGKAPKLLIYDASRLQSGVPSRFSGSGSGTDFTLTISSLQPEDFANYYCQQTFTTPLTFGGGTKVEIK
# B4: 4029_Lib1_scFv (scFv, not shown: small tags and cut ends)
# scFv: B3 scFv with D173S, T175G, N176D, D177F, R198H, S201T, F237S, T239I, L241P
# B5: 9301_Lib8_scFv (scFv, not shown: small tags and cut ends)
# scFv: EVQLVESGGGLVQPGRSLRLSCAASGFNFHNYDMHWVRQAPGKGLEWVSAISGSGYTADYADSVEGRFTISRDNAKNSLYLQMNSLRAEDTAVYYCAKSHSSGWSSAFDIWGQGTMVTVSSSGGSTITSYNVYYTKLSSSGTDIQMTQSPSSLSASVGDRVTITCRASQTIGYWLAWYQQKPGKAPKLLIYDASVPESGVPSRFSGSGSGTDFTLTISSLQPEDVATYYCQQTLSSPWTFGGGTKVEIK
# B6: 1374_Lib8_scFv (scFv, not shown: small tags and cut ends)
# scFv: EVQLVESGGGLVQPGRSLRLSCAASGVDFSTYAMHWVRQAPGKGLEWVSAISSSGAYTDYADSVEGRFTISRDNAKNSLYLQMNSLRAEDTAVYYCATDRGPFSGYGTQGWFDPWGQGTLVTVSSSGGSTITSYNVYYTKLSSSGTDIQMTQSPSSLSASVGDRVTITCRASQTIRSYLAWYQQKPGKAPKLLIYGASDLQSGVPSRFSGSGSGTDFTLTISSLQPEDVATYYCQQYANFPITFGGGTKVEIK
# B7: 1405_Lib8_scFv (scFv, not shown: small tags and cut ends)
# scFv: B6 scFv with Q173R, T174D, R176T, G196H, D199T, Q201E, S202A, A238G, N239D, I242P
# B8: Lib1_P1_C6_scFv (scFv, not shown: small tags and cut ends)
# scFv: QVQLVQSGAEVKKPGASVKVSCKVSGYTFASHYIHWVRQAPGKGLEWMGGMDPATGQTIYAQKFQGRVTMTEDTSTDTAYMELSSLKSEDTAVYYCAKGDRSSWYEVLSFQHWGQGTLVTVSSSGGSTITSYNVYYTKLSSSGTDIQMTQSPSSVSASVGDRVTITCRASQGISTDLAWYQQKPGKAPKLLIYDASILQRGVPSRFSGSGSGTDFTLTISSLQPEDFANYYCQQVRTYPFTFGGGTKVEIK
# B9: Lib4_P2_A1_scFv (scFv, not shown: small tags and cut ends)
# scFv: QVQLQESGPGLVKPSQTLSLTCTVSGASFGDNYWSWIRQPPGKGLEWIGYIDTSGSSDYNPSLKSRVTMSVDTSKNQFSLKVNSVTAADTAVYYCARVSWGYYAMDVWGQGTTVTVSSSGGSTITSYNVYYTKLSSSGTEIVMTQSPATLSLSPGERATLSCRASQGISGRLAWYQQKPGQAPRLLIYDVSTRATGIPARFSGSGSGTDFTLTISSLEPEDFAVYYCQQYDTSAPLTFGGGTKVEIK
# B10: 4166_Lib4_scFv (scFv, not shown: small tags and cut ends)
# scFv: QVQLQESGPGLVKPSQTLSLTCTVSGESFSGHFWSWIRQPPGKGLEWIGYISQSGRTDYNPSLKSRVTMSVDTSKNQFSLKVNSVTAADTAVYYCARTLPRIQLWSPRGAFDIWGQGTMVTVSSSGGSTITSYNVYYTKLSSSGTEIVMTQSPATLSLSPGERATLSCRASQSLGRSLAWYQQKPGQAPRLLIYDASHRATGIPARFSGSGSGTDFTLTISSLEPEDFAVYYCQQYVSYPLTFGGGTKVEIK
# B11: 3552_Lib8_scFv (scFv, not shown: small tags and cut ends)
# scFv: EVQLVESGGGLVQPGRSLRLSCAASEFTFGDYDMHWVRQAPGKGLEWVSAISSSGSNRDYADSVEGRFTISRDNAKNSLYLQMNSLRAEDTAVYYCARDAWFGDAFDIWGQGTMVTVSSSGGSTITSYNVYYTKLSSSGTDIQMTQSPSSLSASVGDRVTITCRASESVSSWLAWYQQKPGKAPKLLIYGASTLEGGVPSRFSGSGSGTDFTLTISSLQPEDVATYYCQQSYSFPDFGGGTKVEIK
# B12: 2738_Lib1_scFv (scFv, not shown: small tags and cut ends)
# scFv: QVQLVQSGAEVKKPGASVKVSCKVSGYTLTDLPIHWVRQAPGKGLEWMGGINPFLGTTIYAQKFQGRVTMTEDTSTDTAYMELSSLKSEDTAVYYCARGVDMLATARDYYYMAIWGKGTTVTVSSSGGSTITSYNVYYTKLSSSGTDIQMTQSPSSVSASVGDRVTITCRASQSIGNDLAWYQQKPGKAPKLLIYGASMRATGVPSRFSGSGSGTDFTLTISSLQPEDFANYYCQQYASDPLTFGGGTKVEIK
# B13: Lib1_P1_D1_scFv (scFv, not shown: small tags and cut ends)
# scFv: QVQLVQSGAEVKKPGASVKVSCKVSGDTFTDRYIHWVRQAPGKGLEWMGGINTIFGTAIYAQKFQGRVTMTEDTSTDTAYMELSSLKSEDTAVYYCAREGATVSTNFDYWGQGTLVTVSSSGGSTITSYNVYYTKLSSSGTDIQMTQSPSSVSASVGDRVTITCRASQDIRKSLAWYQQKPGKAPKLLIYDISNRPSGVPSRFSGSGSGTDFTLTISSLQPEDFANYYCQQGYSAPYGFGGGTKVEIK
# B14: Lib1_P1_E9_scFv (scFv, not shown: small tags and cut ends)
# scFv: QVQLVQSGAEVKKPGASVKVSCKVSGYTFTSHIIHWVRQAPGKGLEWMGGMNPYSNKAIYAQKFQGRVTMTEDTSTDTAYMELSSLKSEDTAVYYCARDASDYGDYGYYYYYMDVWGKGTTVTVSSSGGSTITSYNVYYTKLSSSGTDIQMTQSPSSVSASVGDRVTITCRASQYIGNDLAWYQQKPGKAPKLLIYEASQRPSGVPSRFSGSGSGTDFTLTISSLQPEDFANYYCQQQYNYPLTFGGGTKVEIK
# B15: Lib4_P2_B4_scFv (scFv, not shown: small tags and cut ends)
# scFv: QVQLQESGPGLVKPSQTLSLTCTVSGASLGDQYWSWIRQPPGKGLEWIGYIHPSGDFDYNPSLKSRVTMSVDTSKNQFSLKVNSVTAADTAVYYCARHYSSSWYGTWYFDLWGRGTLVTVSSSGGSTITSYNVYYTKLSSSGTEIVMTQSPATLSLSPGERATLSCRASQNIGTNLAWYQQKPGQAPRLLIYDASVRAAGIPARFSGSGSGTDFTLTISSLEPEDFAVYYCQQSLTTPLTFGGGTKVEIK
# B16: 8226_Lib8_scFv (scFv, not shown: small tags and cut ends)
# scFv: EVQLVESGGGLVQPGRSLRLSCAASGFNFHNYDMHWVRQAPGKGLEWVSAISGGAVSTDYADSVEGRFTISRDNAKNSLYLQMNSLRAEDTAVYYCARSSWYGGQIDFWGQGTLVTVSSSGGSTITSYNVYYTKLSSSGTDIQMTQSPSSLSASVGDRVTITCRASQDISGWLAWYQQKPGKAPKLLIYAASSLQDGVPSRFSGSGSGTDFTLTISSLQPEDVATYYCQQSYRIPSTFGGGTKVEIK
# B17: 1081_Lib8_scFv (scFv, not shown: small tags and cut ends)
# scFv: EVQLVESGGGLVQPGRSLRLSCAASGFNFHNYDMHWVRQAPGKGLEWVSAISGGAVSTDYADSVEGRFTISRDNAKNSLYLQMNSLRAEDTAVYYCARSSWYGGQIDFWGQGTLVTVSSSGGSTITSYNVYYTKLSSSGTDIQMTQSPSSLSASVGDRVTITCRASESVSSWLAWYQQKPGKAPKLLIYGASTLEGGVPSRFSGSGSGTDFTLTISSLQPEDVATYYCQQAYRTPVTFGGGTKVEIK
# B18: Lib8_P4_C10_scFv (scFv, not shown: small tags and cut ends)
# scFv: EVQLVESGGGLVQPGRSLRLSCAASGFNFHNYDMHWVRQAPGKGLEWVSAISGSSDTMDYADSVEGRFTISRDNAKNSLYLQMNSLRAEDTAVYYCVRASWYGTFFDYWGQGTLVTVSSSGGSTITSYNVYYTKLSSSGTDIQMTQSPSSLSASVGDRVTITCRASQDISGWLAWYQQKPGKAPKLLIYAASSLQDGVPSRFSGSGSGTDFTLTISSLQPEDVATYYCQQSYRIPSTFGGGTKVEIK
# B19: 9621_Lib8_scFv (scFv, not shown: small tags and cut ends)
# scFv: EVQLVESGGGLVQPGRSLRLSCAASGFSFSMYAMHWVRQAPGKGLEWVSAISPSGDATDYADSVEGRFTISRDNAKNSLYLQMNSLRAEDTAVYYCARGMQDYGHYYYYYMDVWGKGTTVTVSSSGGSTITSYNVYYTKLSSSGTDIQMTQSPSSLSASVGDRVTITCRASQDISTSLAWYQQKPGKAPKLLIYGASSLETGVPSRFSGSGSGTDFTLTISSLQPEDVATYYCQQGYIAPRTFGGGTKVEIK
# B20: 189_Lib4_scFv (scFv, not shown: small tags and cut ends)
# scFv: QVQLQESGPGLVKPSQTLSLTCTVSGVTFSSYGWSWIRQPPGKGLEWIGYVDTSGSTDYNPSLKSRVTMSVDTSKNQFSLKVNSVTAADTAVYYCARTTYYYDSSGFARGWFDPWGQGTLVTVSSSGGSTITSYNVYYTKLSSSGTEIVMTQSPATLSLSPGERATLSCRASQSVPSSHLAWYQQKPGQAPRLLIYDATNRAAGIPARFSGSGSGTDFTLTISSLEPEDFAVYYCQQYDNWPSPSFGGGTKVEIK
# B21: Lib4_P2_H3_scFv (scFv, not shown: small tags and cut ends)
# scFv: QVQLQESGPGLVKPSQTLSLTCTVSGSTFGDYAWSWIRQPPGKGLEWIGYINHIGNADYNPSLKSRVTMSVDTSKNQFSLKVNSVTAADTAVYYCARDGVESPEVPNYYYYGMDVWGQGTTVTVSSSGGSTITSYNVYYTKLSSSGTEIVMTQSPATLSLSPGERATLSCRASHSIGSNLAWYQQKPGQAPRLLIYDATNRAPGIPARFSGSGSGTDFTLTISSLEPEDFAVYYCQQSYTNPTFGGGTKVEIK
# Molecular target: T1, biotinylated human VWF cysteine knot …
# Assay: SPR, scFv captured on anti-SV5, pH 7.4
# Description: Briefly, a sensor chip was activated and coupled with an anti-SV5 mouse monoclonal antibody using amine coupling. The soluble scFvs in crude yeast supernatants were printed on the anti-SV5 lawn. […] From the measured association (kₒₙ) and dissociation (koff) rate constants, an apparent equilibrium dissociation constant (Kd=koff/kₒₙ) was estimated. Due to the dimeric state of the CK construct and consequent possibility for simultaneous binding of captured scFv to both monomers in the CK dimer, the SPR setup was expected to overestimate the binding affinity.
row,binding result,Binder
1,binds,B1
2,binds,B2
3,binds,B3
4,binds,B4
5,binds,B5
6,binds,B6
7,binds,B7
8,binds,B8
9,binds,B9
10,binds,B10
11,binds,B11
12,binds,B12
13,binds,B13
14,binds,B14
15,binds,B15
16,binds,B16
17,binds,B17
18,binds,B18
19,binds,B19
20,binds,B20
21,binds,B21
